Key:
[1] = target: the molecule itself; test: gel filtration on Sephadex-100, self-association (~1 mg/ml dimer; about 10 mg/ml tendency to tetramers)
Procedure: (§1) Purified protein samples (˜1 mg/ml) were loaded onto a Sephadex-100 column (0.7×60 cm) and eluted with a solution of 50 mM phosphate buffer (pH 7.0) and 100 mM NaCl. EGFP, HcRed1 and DsRed2 (Clontech) were used as monomer, dimer and tetramer standards, respectively. In addition, a tendency to form tetramers has been indicated when recombinant purified EqFP578 was used for the gel-filtration at concentration of about 10 mg/ml.

[2] = target: the molecule itself; test: gel filtration as in Example 2, self-association
Procedure: as §1
Recombinant EqFP578 ml was prepared, purified and characterized as described in the Example 2 for wild type EqFP578. Fluorescence properties of this mutant were similar, but not identical to the wild type EqFP578. It has excitation-emission spectral peaks at 553 and 574 nm, respectively (FIG. 3). […] Like wild type EqFP578, EqFP578 m1 is a dimer.

[3] = target: the molecule itself; test: gel filtration, self-association
Procedure: as §1
Recombinant M1-NA was prepared, purified and characterized as described in the Example 2 for wild type EqFP578. According to gel-filtration data, M1-NA is a dimeric protein at a concentration of 1 mg/ml. Fluorescent properties of M1-NA are the same as those of EqFP578 ml. M1-NA is a bright red fluorescent protein, characterized with excitation/emission fluorescence spectra peaked at 553/574 nm. M1-NA fluorescence quantum yield=0.67, molar extinction coefficient (at 553 nm)=92,000 M(−1)cm(−1). M1-NA doesn't form aggregates in vitro, according to gel-electrophoresis data. It also doesn't form any noticeable aggregates upon expression in eukaryotic cells, as it was shown for HeLa and 293T cell lines.
It excitation/emission spectra peaked at 574/602 nm (see FIG. 4 for spectra). M1-602 nm fluorescence quantum yield=0.35, molar extinction coefficient (at 574 nm)=74,400 M″)cm⁽⁻¹⁾. According to gel-filtration data, M1-602 nm is a dimeric protein at concentration of 1 mg/ml.

[4] = target: the molecule itself; test: gel filtration (self-association)
Procedure: as §1
Recombinant nrM181-5 was prepared, purified and characterized as described in the Example 2 for wild type EqFP578. nrM181-5 is a cyan fluorescent protein, characterized with excitation/emission fluorescence spectra peaked at 400/470 nm (see FIG. 7 for spectra). According to gel-filtration data, nrM181-5 is a monomeric protein at a concentration of 1 mg/ml. The protein is capable of photoconversion to the red fluorescent form in response to violet light irradiation.

B1: wild type Entacmaea quadricolor red fluorescent protein EqFP578 (other)
chain: MSELIKENMHMKLYMEGTVNNHHFKCTSEGERKPYEGTQTMKIKVVEGGPLPFAFDILATSFMYGSKTFINHTQGIPDLFKQSFPEGFTWERITTYEDGGVLTATQDTSLQNGCIIYNVKINGVNFPSNGSVMQKKTLGWEANTEMLYPADGGLRGHSQMALKLVGGGYLHCSFKTTYRSKKPAKNLKMPGFHFVDHRLERIKEADKETYVEQHEMAVAKYCDLPSKLGHR
notes: Recombinant protein from E. coli, purified on TALON resin; Dimer by gel filtration at ~1 mg/ml, with a tendency to form tetramers at about 10 mg/ml; not shown: N-terminal six-histidine tag from the pQE30 vector
binding result [1]: binds

B2: EqFP578 m1 mutant (other)
chain: MSELIKENMHMKLYMEGTVNNHHFKCTSEGEGKPYEGTQTMKIKVVEGGPLPFAFDILATSFMYGSKAFINHTQGIPDFFKQSFPEGFTWERITTYEDGGVLTATQDTSFQNGCIIYNVKINGVNFPSNGPVMQKKTRGWEANTEMLYPADGGLRGHSQMALKLVGGGYLHCSFKTTYRSKKPAKNLKMPGFHFVDHRLERIKEADKETYVEQHEMAVAKYCDLPSKLGHR
notes: Engineered mutant of EqFP578; also called EqFP578 ml
binding result [2]: binds

B3: M1-NA non-aggregating mutant of EqFP578 (other)
chain: MGEYSELITENMHMKLYMEGTVNNHHFKCTSEGEGKPYEGTQTMKIKVVEGGPLPFAFDILATSFMYGSKAFINHTQGIPDFFKQSFPEGFTWERITTYEDGGVLTATQDTSFQNGCIIYNVKINGVNFPSNGPVMQKKTRGWEANTEMLYPADGGLRGHSQMALKLVGGGYLHCSFKTTYRSKKPAKNLRMPGFHFVDHRLERIKEADKETYVEQHEMAVAKYCDLPSKLGHS
binding result [3]: binds

B4: M1-602 mutant of EqFP578 (other)
chain: MGEDSELITENMHMKLYMEGTVNNHHFKCTSEGEGKPYEGTQTMKIKVVEGGPLPFAFDILATSFMYGSKAFINHTQGIPDFFKQSFPEGFTWERITTYEDGGVLTATQDTSLQNGCLIYNVKINGVNFPSNGPVMQKKTLGWEASTEMLYPADSGLRGHGQMALKLVGGGYLHCSLKTTYRSKKPAKNLKMPGFHFVDHRLERIKEADKETYVEQHEMAVAKYCDLPSKLGHS
notes: Engineered red-shifted mutant; also called M1-602 nm
binding result [3]: binds

B5: M1-637 mutant of EqFP578 (other)
chain: MGEDSELITENMHMKLYMEGTVNNHHFKCTSEGEGKPYEGTQTMKIKVVEGGPLPFAFDILATSFMYGSKAFINHTQGIPDFFKQSFPEGFTWERITTYEDGGVLTATQDTSLQNGCLIYNVKINGVNFPSNGPVMQKKTLGWEASTEMLYPADSGLRGHSQMALKLVGGGYLHCSLKTTYRSKKPAKNLKMPGFHFVDRRLERIKEADKETYVEQHEMAVAKYCDLPSKLGHS
binding result [3]: binds

B6: nrM181-5 cyan mutant of EqFP578 (other)
chain: MSELIKENMHMKLYMEGTVNNHHFKCTSEGEGKPYEGTQTMKIKVVEGGPLPFAFDILATSFMYGSKTFINHTQGIPDFFKQSFPEGFTWERVTTYEDGGVLTATQDTSLQDGCLIYNVKIRGVNFPSNGPVMQKKTLGWEAHTEMLYPADGGLEGRSDMALKLVGGGHLIANFKTTYRSKKPAKNLKMPGVYYVDHRLERIKEADKETYVEQHEMAVAKYCDLPSKLGHKLN
notes: Derived from M1-mono1
binding result [4]: no binding (tested: 1 mg/ml)

B7: Cyan-2-1 cyan mutant of EqFP578 (other)
chain: MSELIKENMHMKLYMEGTVNNHHFKCTSEGEGKPYGGTQTMRIKVVEGGPLPVAFDILATSFMYGSRTFINHTQGIPDFFKQSFPEGFTWERVTTYEDGGVLTATQDTSLQDGCLIYNVKIRGVNFPSNGPVMQKKTLGWEAFTEMLYPADGGLEGRSDMALKLVGGGHLICNFKTTYRSKKPAKNLKMPGVYYVDYRLERIKEADKETYVEQHEVAVARYCDLPSKLGHKLN
notes: Derived from M1-mono1
binding result [4]: no binding (tested: 1 mg/ml)

Source: patent US20130203162A1 (EVROGEN IP JOINT STOCK, published 2013)
